Results: patent publication US20100076177A1 (published 2010)

B1: AZN-D1, murine monoclonal antibody directed to h-DC-SIGN (the "initial antibody" of Example 2) (antibody, V domains shown)
VH: QVQLQQSGPQSVRPGASVKISCKASGYSFTSYWMGWVKQRPGQGLEWIGMIDPFDSESRLNQEFKDKATLTVDKSSSTVYMQLSSPTSEDSAIYYCVRRNGGYYVFDSWGQGTTLTVSS
VL: DVLMTQSPLSLPVSLGDKASISCRSSQNIVHSNGDTYLEWYLQRPGQSPKLLIFKVSNRFSGVPDRFSGSGSGTDFILKISRVEAEDLGVYYCFQGSHVPWTFGGGTKLEIK
B2: murine monoclonal antibody directed to human mannose binding lectin (the "initial antibody" of Example 1) (antibody, V domains shown)
VH: VQLQESGPGLVKPSQSLSLTCTVTGYSITSDYAWNWIRQFPGNKLEWMGYISYSGSTSYNPSLKSRVSITRDTSKNQFFLQLNSVTTEDTATYYCARWESWFAYWGQGTLVTVSA
VL: DIVLTQSPATLSVTPGDSVSLSCRASQSISNDLHWYQQKSHESPRLLIKYASQSISGIPSRFSGSGSGTDFTLSINSVETEDFGMYFCQQSNSWPYTFGGGTKLEIK

Columns and labels:
[1] = target: T1, hDC-SIGN (human, UniProt Q9NNX6 60-404); test: BIAcore 3000
T1 chain: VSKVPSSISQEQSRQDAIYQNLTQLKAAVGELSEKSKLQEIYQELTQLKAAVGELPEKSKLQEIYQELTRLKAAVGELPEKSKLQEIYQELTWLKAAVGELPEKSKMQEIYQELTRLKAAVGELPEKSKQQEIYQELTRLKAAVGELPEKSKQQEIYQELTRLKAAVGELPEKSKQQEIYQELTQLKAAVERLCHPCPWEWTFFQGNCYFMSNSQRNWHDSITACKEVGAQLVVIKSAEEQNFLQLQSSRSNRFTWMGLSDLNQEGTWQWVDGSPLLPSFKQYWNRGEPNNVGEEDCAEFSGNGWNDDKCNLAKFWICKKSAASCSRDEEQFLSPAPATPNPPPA

[2] = target: mannan-binding lectin (MBL) (human, UniProt P11226 21-248); test: BIAcore 3000
mannan-binding lectin (MBL), sequence (P11226 21-248): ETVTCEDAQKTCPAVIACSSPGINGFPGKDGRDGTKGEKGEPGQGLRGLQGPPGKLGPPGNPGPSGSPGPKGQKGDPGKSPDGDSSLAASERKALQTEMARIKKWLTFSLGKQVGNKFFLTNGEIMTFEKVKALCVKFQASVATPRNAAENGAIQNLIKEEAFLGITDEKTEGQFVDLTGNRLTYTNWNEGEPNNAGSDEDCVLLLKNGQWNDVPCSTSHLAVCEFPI

Row | Binder | Kd [1] [nM] | Kd [2] [nM]
1 | B1 | 3.88 | 
2 | B2 |  | 1.24
